# Laboratory results published in patent publication US11666671B2, “Spatial mapping of kidney functions” (Northwestern University, priority 2018, dated 2023).
# Like-named read-outs stand apart in the source and are kept apart here.
# Columns and labels:
# [1] = mouse, in vivo
# [2] = system: FcRn; assay: Binding of Fc to FcRn on renal tubular epithelial cells; assay type: in vivo; settings: surface of renal tubular epithelial cells
# [3] = Renal histology (immunofluorescence) and renal tubular handling of the carriers (FIGS. 3, 4); settings: ^99mTc/HYNIC-labelled carriers
# [4] = not given; remark: listed apart in the source
# [5] = not given; remark: listed apart in the source
# [6] = Conventional renal scintigraphy (renogram) with radionuclide-bound tracers (FIG. 1)
# [7] = steady state, from 45 min onward, FIG. 8A
compound,measurement,setting,value
"PBT-Fc carrier moiety: N-terminal His6 tag, PBT from human VEGFA (amino acids 131-163), and Fc of human IgG1, expressed in E. coli",distribution of the probe in renal histology (immunofluorescence),[1],mainly in the tubular basement membrane
"Fc: imaging agent using ^99mTc as detection moiety, HYNIC as chelation moiety, and Fc alone as carrier moiety [reference compound]",FcRn binding,[2],binds the FcRn on the surface of renal tubular epithelial cells
same,renal tubular handling / fate of the carrier,[3],reenters blood circulation via peritubular capillaries
"^99mTc/HYNIC/PBT-Fc: ^99mTc as the detection moiety, HYNIC as the chelation moiety, and PBT-Fc as the carrier moiety",renal fate / urinary excretion of the agent,after administration to test subjects,"fixed (e.g., permanently) at the basement membrane of the downstream renal tubules without being further excreted into urine"
same,time after which radio signals accumulated in the kidney reach the plateau,"glomerular filtration phase, tail vein injection",10 to 20 min
same,time the agent stayed in the subject's system for steady state imaging,[4]; FIG. 7,60 min
same,renal fate / urinary excretion of the agent,"[4]; FIG. 7, steady state",concentrated in the kidney without being excreted into urine
same,kidney retention compared with Fc-alone and Duramycin agents,[4]; FIGS. 6 and 7,accumulate and remain the kidneys of the subjects for much longer than that of the Fc-alone and Duramycin agents
same,intrarenal localization (section view),[5]; FIG. 8B,localization of PBT-Fc to the kidney cortex
same,^99mTc signal in liver and bladder,[5]; [7],low levels of signal accumulation in the liver and the bladder
same,^99mTc signal in the kidney,[5]; [7],concentrated in the kidney
same,renal tubular handling / fate of the carrier,[3],“trapped” in the tubular basement membrane (TBM)
"O=C([O-])CN(CCN(CC(=O)[O-])CC(=O)[O-])CCN(CC(=O)[O-])CC(=O)[O-].[99Tc+4] [^99mTc DTPA, ^99mTc Diethylenetriamine-Pentaacetic Acid]",time to wash out of the system,[6],≤ 20 min
